Results: article PMC11021482

Target: T1, CXCR2 of mouse DRG neurons (mouse (endogenous in DRG)) (UniProt P35343)
T1 sequence: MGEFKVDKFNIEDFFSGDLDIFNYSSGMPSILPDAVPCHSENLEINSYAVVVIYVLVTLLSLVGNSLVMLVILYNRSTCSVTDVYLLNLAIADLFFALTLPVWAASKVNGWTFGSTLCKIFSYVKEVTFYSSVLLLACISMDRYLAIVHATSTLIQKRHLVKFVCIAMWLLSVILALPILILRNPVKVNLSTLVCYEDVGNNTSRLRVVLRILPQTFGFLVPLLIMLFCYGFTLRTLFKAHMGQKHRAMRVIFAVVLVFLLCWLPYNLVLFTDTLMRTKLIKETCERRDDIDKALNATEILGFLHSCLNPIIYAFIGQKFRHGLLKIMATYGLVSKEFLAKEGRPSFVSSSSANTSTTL

EC50 of the Ca^2+ response of cultured mouse DRG neurons to CXCL5 (Fura-2 imaging, dose-response): 24.8 nM
B1: recombinant mouse CXCL5 (ligand)
chain: APSSVIAATELRCVCLTVTPKINPKLIANLEVIPAGPQCPTVEVIAKLKNQKEVCLDPEAPVIKKIIQKILGSDKKKAKRNALAVERTASVQ
